From US20100243450 come the findings set out here.

This data set addresses Mef2c (UniProt Q06413). To be noted: NECEEM; 25 mM tetraborate pH 9.4, room temperature; koff 0.022 s-1, kon 45 M-1 s-1.

Mef2c, sequence (Q06413 whole entry): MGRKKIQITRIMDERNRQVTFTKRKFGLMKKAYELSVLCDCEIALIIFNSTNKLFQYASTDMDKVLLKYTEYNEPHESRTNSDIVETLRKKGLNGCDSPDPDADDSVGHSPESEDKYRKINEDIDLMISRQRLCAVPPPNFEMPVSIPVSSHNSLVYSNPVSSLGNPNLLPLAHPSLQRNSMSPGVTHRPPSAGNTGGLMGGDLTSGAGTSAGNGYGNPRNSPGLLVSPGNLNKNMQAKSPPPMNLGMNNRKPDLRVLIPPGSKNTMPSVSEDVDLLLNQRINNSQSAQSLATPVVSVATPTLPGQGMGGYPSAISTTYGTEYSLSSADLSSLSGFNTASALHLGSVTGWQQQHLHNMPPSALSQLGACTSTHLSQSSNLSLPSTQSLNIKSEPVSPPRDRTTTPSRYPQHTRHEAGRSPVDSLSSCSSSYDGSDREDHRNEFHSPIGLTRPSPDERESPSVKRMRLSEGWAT

For “CCTGCCACGCTCCGCTCTAAAAATAA (double strand) [Mef2c target dsDNA 26 bp]”, the dissociation constant Kd was found to be 480 µM.

For orientation: Kd means the concentration at which binding is half-saturated. High values mean weaker binding, low ones tighter binding.
